This note sets out measurements from PMC12102759.

Common to all, as to test: fluorescence polarisation
Assay [1] deals with FITC-labeled MBOAT1 probe peptide FITC-… (human).
In assay [2] the target is FITC-labeled PRDM14 probe peptide FITC-… (human).
Assay [3] concerns the target FITC-labeled NCOA2 probe peptide FITC-… (human).
In assay [4] the target is FITC-labeled NKRF probe peptide FITC-….
Assay [5] deals with SARS‐CoV‐2 NSP3 UBl1 domain (819–925), tag cleaved, for FP (SARS-CoV-2) (UniProt P0DTD1).
Assay [6] addresses SARS‐CoV‐2 NSP9 (4141–4253), tag cleaved, for FP (SARS-CoV-2) (UniProt P0DTD1).
The target of assay [7] is SARS‐CoV‐2 NSP3 SUD‐M domain (1356–1493), tag cleaved, for FP (SARS-CoV-2) (UniProt P0DTD1).

The substance “SARS-CoV-2 NSP3 ADRP domain (domain or fragment)” registered a Kd in assay [1] of 51 µM.

Regarding “SARS-CoV-2 NSP3 SUD-M domain (domain or fragment)”, in assay [2], the Kd worked out at 23 µM.

On to “SARS-CoV-2 NSP3 UBl1 domain (domain or fragment)”, for which the Kd in assay [3] amounted to 67 µM.

Consider “SARS-CoV-2 non-structural protein 9 (NSP9) (natural protein)”, for which the Kd in assay [4] was 15.5 µM.

In assay [5], “wild‐type NCOA2_(1073–1088) peptide (from UniProt Q15596 1073-1088)” had a Kd of 39 µM.

The substance wild‐type NOTCH4 peptide (synthetic) had a Kd in assay [6] of 72 µM.

As for wild‐type PRDM14 peptide (synthetic), in assay [7], the Kd turned out to be 74 µM.

As usually defined, the Kd is the constant that tells how readily two partners part at equilibrium.
